T1: A1/A3-C1-C2 heterodimer of factor VIII, plasma-derived (human, UniProt P00451 20-391; P00451 1709-2351)
T1 sequence 1: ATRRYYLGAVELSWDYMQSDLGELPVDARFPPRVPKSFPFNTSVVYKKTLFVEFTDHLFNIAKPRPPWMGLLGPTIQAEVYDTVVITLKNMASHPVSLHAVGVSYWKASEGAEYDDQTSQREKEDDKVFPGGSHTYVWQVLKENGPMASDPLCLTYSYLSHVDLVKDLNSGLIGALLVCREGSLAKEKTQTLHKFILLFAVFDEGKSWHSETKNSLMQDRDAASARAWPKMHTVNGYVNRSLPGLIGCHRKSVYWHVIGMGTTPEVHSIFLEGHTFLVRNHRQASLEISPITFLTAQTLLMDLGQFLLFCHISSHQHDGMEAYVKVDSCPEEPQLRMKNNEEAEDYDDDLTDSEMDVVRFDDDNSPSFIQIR
T1 sequence 2: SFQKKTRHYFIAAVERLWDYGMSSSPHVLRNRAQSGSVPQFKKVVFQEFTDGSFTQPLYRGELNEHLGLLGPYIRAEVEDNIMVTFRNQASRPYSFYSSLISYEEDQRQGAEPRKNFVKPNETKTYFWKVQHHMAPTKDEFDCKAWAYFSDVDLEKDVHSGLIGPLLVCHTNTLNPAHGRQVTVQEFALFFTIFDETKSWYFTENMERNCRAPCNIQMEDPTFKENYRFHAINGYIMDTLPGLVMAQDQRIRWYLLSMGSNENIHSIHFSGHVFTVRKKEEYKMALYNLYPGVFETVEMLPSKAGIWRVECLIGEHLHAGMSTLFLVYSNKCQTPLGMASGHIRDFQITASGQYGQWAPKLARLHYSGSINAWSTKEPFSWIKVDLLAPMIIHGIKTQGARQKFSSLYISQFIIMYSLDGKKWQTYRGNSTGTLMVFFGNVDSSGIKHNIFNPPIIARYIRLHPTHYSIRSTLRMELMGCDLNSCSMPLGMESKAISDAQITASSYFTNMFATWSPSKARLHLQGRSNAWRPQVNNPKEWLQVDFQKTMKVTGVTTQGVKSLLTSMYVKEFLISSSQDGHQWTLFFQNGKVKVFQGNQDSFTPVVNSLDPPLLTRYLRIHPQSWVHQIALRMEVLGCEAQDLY


Assays:
[1] = target: T2, low-density lipoprotein receptor-related protein (LRP), purified (human, UniProt Q07954 20-4544); assay: competition: peptide 484-509 varied, competitor 125I-fVIII, LRP-coated microtiter wells
T2 construct: mature; also called low density lipoprotein receptor-related protein/α2-macroglobulin receptor; LRP receptor
Protocol: FIGS. 17A-17B. […] The mean and standard deviation of the triplicate measurements are presented.
(§1) Solid-phase binding assays. […] Microtiter wells were coated with purified LRP or BSA (3 μg/ml) in 50 mM Tris, 0.15 M NaCl, pH 8.0, for 16 h and then blocked with 3% BSA in TBS. […] The radioactivity bound to the wells was counted using a γ-counter (Pharmacia). Affinity constants were derived from homologous and heterologous displacement data using the computer program LIGAND (Munson, P T and Rodbard, D. Anal. Biochem. 107:220-239 (1980)).

[2] = target: T2, low-density lipoprotein …; assay: heterologous ligand displacement: RAP varied, competitor 125I-fVIII (1 nM), LRP-coated microtiter wells
Protocol: (§2) FIGS. 15A-15B. […] Each point represents the mean value of triplicates and the error bars display the standard deviation. The curves show a best fit of the data to a model describing heterologous ligand displacement from a single class of binding sites using the program LIGAND.
as §1

[3] = target: T2, low-density lipoprotein …; assay: heterologous displacement of ^125I-fVIII (1 nM) from LRP-coated wells
Protocol: as §2, §1

[4] = target: T1, A1/A3-C1-C2 heterodimer of factor VIII, …; assay: cell-based or functional assay
[5] = target: T2, low-density lipoprotein …; assay: SPR, BIAcore 3000, one-site model, KD = koff/kon
Text: (§3) Surface plasmon resonance-based binding assay. […] This system allows real-time biomolecular interaction analysis (BIA) using surface plasmon resonance (SPR) technology. One molecule (the ligand) is usually immobilized on the surface of the sensor chip; the second molecule (the analyte) in solution is passed over the chip under conditions of continuous flow, and the amount of the bound analyte is detected by the system. SPR is a non-invasive optical measuring technique which measures the mass concentration of biomolecules in close proximity to the sensor chip where association and dissociation of biomolecular complexes occurs. […] The association (kₒₙ) and dissociation (koff) rate constants were determined using BIAevaluation Version 3.1 software. The data were corrected for bulk refraction index changes and fitted to a one-site binding model by a non-linear regression analysis Equilibrium dissociation constants (KD) were calculated from the ratio koff/kₒₙ.

[6] = target: T2, low-density lipoprotein …; assay: SPR, BIAcore 3000
Text: as §3

T2 sequence (Q07954 20-4544, form in doubt): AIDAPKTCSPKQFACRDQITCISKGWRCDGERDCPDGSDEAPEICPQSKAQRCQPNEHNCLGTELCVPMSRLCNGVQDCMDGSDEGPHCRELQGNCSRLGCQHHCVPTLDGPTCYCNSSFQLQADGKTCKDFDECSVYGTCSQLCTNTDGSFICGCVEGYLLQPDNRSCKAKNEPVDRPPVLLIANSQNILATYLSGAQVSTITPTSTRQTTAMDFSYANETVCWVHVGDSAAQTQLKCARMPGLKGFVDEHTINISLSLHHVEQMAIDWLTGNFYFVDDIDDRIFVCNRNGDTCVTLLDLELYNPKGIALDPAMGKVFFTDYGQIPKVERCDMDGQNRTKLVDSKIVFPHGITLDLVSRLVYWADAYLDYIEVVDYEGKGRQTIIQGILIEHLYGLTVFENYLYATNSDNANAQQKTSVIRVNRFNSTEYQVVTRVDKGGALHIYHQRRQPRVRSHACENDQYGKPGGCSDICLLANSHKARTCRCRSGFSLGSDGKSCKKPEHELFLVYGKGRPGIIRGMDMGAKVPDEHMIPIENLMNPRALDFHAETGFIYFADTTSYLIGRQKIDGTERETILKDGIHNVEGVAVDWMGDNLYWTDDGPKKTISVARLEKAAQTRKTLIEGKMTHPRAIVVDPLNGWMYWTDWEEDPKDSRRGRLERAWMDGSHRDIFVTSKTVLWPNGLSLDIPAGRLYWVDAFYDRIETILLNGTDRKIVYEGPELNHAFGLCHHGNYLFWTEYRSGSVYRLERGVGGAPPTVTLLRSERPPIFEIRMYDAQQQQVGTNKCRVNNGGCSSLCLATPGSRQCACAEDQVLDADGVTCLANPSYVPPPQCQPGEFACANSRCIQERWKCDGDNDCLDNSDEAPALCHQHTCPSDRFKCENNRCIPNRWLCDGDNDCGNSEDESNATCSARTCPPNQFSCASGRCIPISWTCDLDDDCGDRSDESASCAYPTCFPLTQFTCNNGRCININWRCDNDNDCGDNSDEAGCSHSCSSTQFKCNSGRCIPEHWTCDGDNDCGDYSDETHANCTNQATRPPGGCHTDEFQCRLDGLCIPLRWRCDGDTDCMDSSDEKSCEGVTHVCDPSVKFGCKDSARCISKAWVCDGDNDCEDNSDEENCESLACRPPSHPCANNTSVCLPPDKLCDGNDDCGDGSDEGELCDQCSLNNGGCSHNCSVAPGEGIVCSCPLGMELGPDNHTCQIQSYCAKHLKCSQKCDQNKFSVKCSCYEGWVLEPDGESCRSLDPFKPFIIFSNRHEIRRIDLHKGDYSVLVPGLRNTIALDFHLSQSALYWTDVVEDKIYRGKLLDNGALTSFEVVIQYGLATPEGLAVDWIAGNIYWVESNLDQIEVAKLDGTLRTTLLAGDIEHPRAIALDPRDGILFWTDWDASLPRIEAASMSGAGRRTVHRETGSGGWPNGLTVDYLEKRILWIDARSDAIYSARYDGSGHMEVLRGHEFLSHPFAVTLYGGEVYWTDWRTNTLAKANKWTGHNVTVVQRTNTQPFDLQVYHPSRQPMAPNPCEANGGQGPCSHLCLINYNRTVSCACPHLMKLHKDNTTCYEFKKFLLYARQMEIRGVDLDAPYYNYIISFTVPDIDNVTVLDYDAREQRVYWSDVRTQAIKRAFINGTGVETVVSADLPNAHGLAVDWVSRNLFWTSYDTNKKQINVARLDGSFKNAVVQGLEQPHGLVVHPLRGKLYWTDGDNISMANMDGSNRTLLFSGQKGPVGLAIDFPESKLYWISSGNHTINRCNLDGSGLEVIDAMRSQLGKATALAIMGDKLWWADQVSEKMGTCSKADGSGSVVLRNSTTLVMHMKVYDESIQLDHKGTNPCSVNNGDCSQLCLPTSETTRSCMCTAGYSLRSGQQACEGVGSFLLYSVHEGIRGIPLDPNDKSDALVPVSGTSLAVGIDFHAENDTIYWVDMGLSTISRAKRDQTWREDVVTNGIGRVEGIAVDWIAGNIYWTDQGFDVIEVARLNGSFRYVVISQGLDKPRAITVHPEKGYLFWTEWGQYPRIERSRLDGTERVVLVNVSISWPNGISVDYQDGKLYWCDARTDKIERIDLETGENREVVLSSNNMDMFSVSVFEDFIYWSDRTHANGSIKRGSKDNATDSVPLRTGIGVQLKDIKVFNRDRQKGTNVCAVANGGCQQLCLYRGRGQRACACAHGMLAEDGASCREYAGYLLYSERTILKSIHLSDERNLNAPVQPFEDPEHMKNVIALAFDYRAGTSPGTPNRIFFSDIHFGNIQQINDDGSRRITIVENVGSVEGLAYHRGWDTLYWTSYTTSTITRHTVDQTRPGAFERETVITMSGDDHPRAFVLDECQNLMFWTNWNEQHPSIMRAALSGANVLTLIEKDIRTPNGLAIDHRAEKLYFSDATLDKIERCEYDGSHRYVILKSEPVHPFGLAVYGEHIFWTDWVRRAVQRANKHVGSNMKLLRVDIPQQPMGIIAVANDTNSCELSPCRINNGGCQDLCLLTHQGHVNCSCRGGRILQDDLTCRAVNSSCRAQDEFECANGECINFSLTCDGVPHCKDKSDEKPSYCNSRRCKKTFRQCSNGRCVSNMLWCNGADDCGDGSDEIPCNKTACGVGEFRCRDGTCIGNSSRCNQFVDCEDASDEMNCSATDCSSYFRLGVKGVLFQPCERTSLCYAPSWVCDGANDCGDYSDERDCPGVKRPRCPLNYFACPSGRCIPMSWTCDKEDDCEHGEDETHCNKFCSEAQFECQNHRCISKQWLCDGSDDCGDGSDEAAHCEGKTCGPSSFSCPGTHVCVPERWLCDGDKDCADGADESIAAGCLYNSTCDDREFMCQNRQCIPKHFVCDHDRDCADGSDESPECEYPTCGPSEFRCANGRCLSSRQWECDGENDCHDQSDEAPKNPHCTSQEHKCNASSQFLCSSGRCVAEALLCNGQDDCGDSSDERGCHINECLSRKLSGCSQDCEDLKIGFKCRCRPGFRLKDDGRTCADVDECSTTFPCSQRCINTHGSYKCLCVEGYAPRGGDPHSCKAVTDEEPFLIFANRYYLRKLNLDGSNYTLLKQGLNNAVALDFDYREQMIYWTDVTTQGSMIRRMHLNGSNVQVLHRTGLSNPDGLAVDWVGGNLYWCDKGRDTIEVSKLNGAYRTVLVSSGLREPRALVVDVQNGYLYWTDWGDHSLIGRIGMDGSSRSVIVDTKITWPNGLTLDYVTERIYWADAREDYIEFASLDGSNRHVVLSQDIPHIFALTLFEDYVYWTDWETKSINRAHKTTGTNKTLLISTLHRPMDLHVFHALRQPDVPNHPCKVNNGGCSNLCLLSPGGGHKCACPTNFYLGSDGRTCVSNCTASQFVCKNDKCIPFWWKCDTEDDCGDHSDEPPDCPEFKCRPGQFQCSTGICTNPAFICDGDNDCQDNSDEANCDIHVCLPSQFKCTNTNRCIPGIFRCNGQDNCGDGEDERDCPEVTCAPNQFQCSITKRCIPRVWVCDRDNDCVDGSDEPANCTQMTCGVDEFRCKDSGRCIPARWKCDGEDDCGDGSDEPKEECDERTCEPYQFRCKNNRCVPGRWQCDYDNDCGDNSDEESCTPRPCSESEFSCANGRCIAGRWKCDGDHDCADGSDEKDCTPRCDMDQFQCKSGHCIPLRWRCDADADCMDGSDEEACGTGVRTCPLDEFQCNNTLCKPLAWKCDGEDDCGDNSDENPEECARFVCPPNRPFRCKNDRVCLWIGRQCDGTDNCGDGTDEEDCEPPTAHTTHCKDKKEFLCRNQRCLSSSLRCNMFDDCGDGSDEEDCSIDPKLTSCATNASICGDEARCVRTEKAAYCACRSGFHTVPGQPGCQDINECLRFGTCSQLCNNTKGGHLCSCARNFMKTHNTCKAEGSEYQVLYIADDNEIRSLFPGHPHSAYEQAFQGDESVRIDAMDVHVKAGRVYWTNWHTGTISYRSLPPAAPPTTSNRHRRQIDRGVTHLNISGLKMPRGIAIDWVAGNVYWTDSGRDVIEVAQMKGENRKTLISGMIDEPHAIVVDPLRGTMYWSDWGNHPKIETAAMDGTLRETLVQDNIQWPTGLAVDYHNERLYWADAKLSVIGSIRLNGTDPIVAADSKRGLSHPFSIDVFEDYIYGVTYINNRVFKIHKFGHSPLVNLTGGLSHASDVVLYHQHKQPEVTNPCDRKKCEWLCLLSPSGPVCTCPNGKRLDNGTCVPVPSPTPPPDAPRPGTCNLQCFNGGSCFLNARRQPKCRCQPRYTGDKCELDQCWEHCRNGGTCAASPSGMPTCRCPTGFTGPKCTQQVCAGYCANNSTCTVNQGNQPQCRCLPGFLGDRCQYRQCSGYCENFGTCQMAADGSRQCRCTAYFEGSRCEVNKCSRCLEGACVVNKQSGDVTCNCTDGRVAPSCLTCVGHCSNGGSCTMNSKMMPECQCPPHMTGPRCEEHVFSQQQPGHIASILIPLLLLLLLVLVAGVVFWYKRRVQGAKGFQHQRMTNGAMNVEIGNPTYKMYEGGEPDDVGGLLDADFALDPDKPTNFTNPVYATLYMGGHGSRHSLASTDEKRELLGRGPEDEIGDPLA

| Binder | IC50 (read off the curve) [1] | IC50 (read off the curve) [2] | Ki [3] | Activity of reconstituted FVIIIa (% of wt activity) [4] | Kd [5] | fold decrease of affinity against wt-A2 [6] |
| --- | --- | --- | --- | --- | --- | --- |
| RPLYSRRLPKGVKHLKDFPILPGEIF [synthetic A2 domain peptide 484-509] | ~1 µM |  |  |  |  |  |
| recombinant A2 mutant #20 (Lys-556 to Ala) (other, hx-A2 form from Sf9 cells; not shown: N-terminal hx leader (6xHis tag, vector-derived linker, factor Xa site)) SGAKKHPKTWVHYIAAEEEDWDYAPLVLAPDDRSYKSQYLNNGPQRIGRKYKKVRFMAYTDETFKTREAIQHESGILGPLLYGEVGDTLLIIFKNQASRPYNIYPHGITDVRPLYSRRLPKGVKHLKDFPILPGEIFKYKWTVTVEDGPTKSDPRCLTRYYSSFVNMERDLASGLIGPLLICYAESVDQRGNQIMSDKRNVILFSVFDENRSWYLTENIQRFLPNPAGVQLEDPEFQASNIMHSINGYVFDSLQLSVCLHEVAYWYILSIGAQTDFLSVFFSGYTFKHKMVYEDTLTLFPFSGETVFMSMENPGLWILGCHNSDFRNRGMTALLKVSSCDKNTGDYYEDSYEDISAYLLSKNNAIEPR |  |  |  | 196 % of wt activity | 33 nM |  |
| recombinant A2 mutant #19 (Lys-523 to Ala) (other, hx-A2 form from Sf9 cells; not shown: N-terminal hx leader (6xHis tag, vector-derived linker, factor Xa site)) SGAKKHPKTWVHYIAAEEEDWDYAPLVLAPDDRSYKSQYLNNGPQRIGRKYKKVRFMAYTDETFKTREAIQHESGILGPLLYGEVGDTLLIIFKNQASRPYNIYPHGITDVRPLYSRRLPKGVKHLKDFPILPGEIFKYKWTVTVEDGPTASDPRCLTRYYSSFVNMERDLASGLIGPLLICYKESVDQRGNQIMSDKRNVILFSVFDENRSWYLTENIQRFLPNPAGVQLEDPEFQASNIMHSINGYVFDSLQLSVCLHEVAYWYILSIGAQTDFLSVFFSGYTFKHKMVYEDTLTLFPFSGETVFMSMENPGLWILGCHNSDFRNRGMTALLKVSSCDKNTGDYYEDSYEDISAYLLSKNNAIEPR |  |  |  | 390 % of wt activity | 41 nM |  |
| recombinant A2 mutant #18 (Lys-512 to Ala) (other, hx-A2 form from Sf9 cells; not shown: N-terminal hx leader (6xHis tag, vector-derived linker, factor Xa site)) SGAKKHPKTWVHYIAAEEEDWDYAPLVLAPDDRSYKSQYLNNGPQRIGRKYKKVRFMAYTDETFKTREAIQHESGILGPLLYGEVGDTLLIIFKNQASRPYNIYPHGITDVRPLYSRRLPKGVKHLKDFPILPGEIFKYAWTVTVEDGPTKSDPRCLTRYYSSFVNMERDLASGLIGPLLICYKESVDQRGNQIMSDKRNVILFSVFDENRSWYLTENIQRFLPNPAGVQLEDPEFQASNIMHSINGYVFDSLQLSVCLHEVAYWYILSIGAQTDFLSVFFSGYTFKHKMVYEDTLTLFPFSGETVFMSMENPGLWILGCHNSDFRNRGMTALLKVSSCDKNTGDYYEDSYEDISAYLLSKNNAIEPR |  |  |  | 219 % of wt activity | 21 nM |  |

Second part, the binder after the results:

| IC50 (read off the curve) [1] | IC50 (read off the curve) [2] | Ki [3] | Activity of reconstituted FVIIIa (% of wt activity) [4] | Kd [5] | fold decrease of affinity against wt-A2 [6] | Binder |
| --- | --- | --- | --- | --- | --- | --- |
|  | ~2 nM | 2.5 nM |  |  |  | 39 kDa receptor-associated protein (RAP), human, expressed in bacteria (other, also called α2 macroglobulin receptor-associated protein) YSREKNQPKPSPKRESGEEFRMEKLNQLWEKAQRLHLPPVRLAELHADLKIQERDELAWKKLKLDGLDEDGEKEARLIRNLNVILAKYGLDGKKDARQVTSNSLSGTQEDGLDDPRLEKLWHKAKTSGKFSGEELDKLWREFLHHKEKVHEYNVLLETLSRTEEIHENVISPSDLSDIKGSVLHSRHTELKEKLRSINQGLDRLRRVSHQGYSTEAEFEEPRVIDLWDLAQSANLTDKELEAFREELKHFEAKIEKHNHYQKQLEIAHEKLRHAESVGDGERVSRSREKHALLEGRTKELGYTVKKHLQDLSGRISRARHNEL |
|  |  |  | 87.9 % of wt activity | 97 nM | 5 fold | recombinant A2 mutant #8 (Tyr-487 to Ala) (other, hx-A2 form from Sf9 cells) SGAKKHPKTWVHYIAAEEEDWDYAPLVLAPDDRSYKSQYLNNGPQRIGRKYKKVRFMAYTDETFKTREAIQHESGILGPLLYGEVGDTLLIIFKNQASRPYNIYPHGITDVRPLASRRLPKGVKHLKDFPILPGEIFKYKWTVTVEDGPTKSDPRCLTRYYSSFVNMERDLASGLIGPLLICYKESVDQRGNQIMSDKRNVILFSVFDENRSWYLTENIQRFLPNPAGVQLEDPEFQASNIMHSINGYVFDSLQLSVCLHEVAYWYILSIGAQTDFLSVFFSGYTFKHKMVYEDTLTLFPFSGETVFMSMENPGLWILGCHNSDFRNRGMTALLKVSSCDKNTGDYYEDSYEDISAYLLSKNNAIEPR |
|  |  |  | 130 % of wt activity | 150 nM | 7 fold | recombinant A2 mutant #10 (Arg-489 to Ala) (other, hx-A2 form from Sf9 cells) SGAKKHPKTWVHYIAAEEEDWDYAPLVLAPDDRSYKSQYLNNGPQRIGRKYKKVRFMAYTDETFKTREAIQHESGILGPLLYGEVGDTLLIIFKNQASRPYNIYPHGITDVRPLYSARLPKGVKHLKDFPILPGEIFKYKWTVTVEDGPTKSDPRCLTRYYSSFVNMERDLASGLIGPLLICYKESVDQRGNQIMSDKRNVILFSVFDENRSWYLTENIQRFLPNPAGVQLEDPEFQASNIMHSINGYVFDSLQLSVCLHEVAYWYILSIGAQTDFLSVFFSGYTFKHKMVYEDTLTLFPFSGETVFMSMENPGLWILGCHNSDFRNRGMTALLKVSSCDKNTGDYYEDSYEDISAYLLSKNNAIEPR |
